This note sets out measurements from paper PMC3368264.

By stoichiometry N is commonly meant a count of units in the complex or per binding partner.

The experiment addresses Leishmania major N5,N10-methylenetetrahydrofolate dehydrogenase/cyclohydrolase (Leishmania major (Friedlin strain)). Put plainly: SEC; Superdex 200 26/60 in buffer A (50 mM Tris-HCl, 250 mM NaCl, 20 mM imidazole, pH 7.5); main peak at approximately 65 kDa (subunit 31.9 kDa). A general note: Size exclusion chromatography separates by hydrodynamic size, large species first.

Consider “Leishmania major N5,N10-methylenetetrahydrofolate dehydrogenase/cyclohydrolase (enzyme)”, for which the stoichiometry N was found to be 2.
